Reference: patent US8227212B2, “Cell that expresses a sulfatase and a formylglycine generating enzyme” (Shire Human Genetic Therapies, Inc., priority 2003, dated 2012)
Read-outs that look alike come from different tables or passages of the source. Blank lines part the entries; values can stand above or below the substance they belong to.

Experiments:
FGE [1] = biological target: T1, FGE (Bos taurus, UniProt Q0P5L5); experiment: In vitro FGE activity assay with [35S] ASA fragments (ribosome-associated nascent chain complexes) as substrate; type: biochemical, bovine
T1 construct: the soluble fraction (reticuloplasm) of bovine testis microsomes served as the starting material; from tissue; host or cells: bovine testis rough microsomes, reticuloplasm
T1 sequence (Q0P5L5 34-374): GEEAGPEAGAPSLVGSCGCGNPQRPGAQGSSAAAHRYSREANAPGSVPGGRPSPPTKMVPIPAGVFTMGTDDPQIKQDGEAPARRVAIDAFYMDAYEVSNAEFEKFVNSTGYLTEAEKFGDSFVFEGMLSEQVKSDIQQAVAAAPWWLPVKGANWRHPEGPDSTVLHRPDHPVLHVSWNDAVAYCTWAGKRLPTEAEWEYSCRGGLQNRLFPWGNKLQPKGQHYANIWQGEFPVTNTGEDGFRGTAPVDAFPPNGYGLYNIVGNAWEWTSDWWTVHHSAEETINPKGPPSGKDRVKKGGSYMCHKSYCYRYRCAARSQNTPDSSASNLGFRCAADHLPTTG
Procedure: We had developed an assay for determining FGE activity in microsome extracts using in vitro synthesized [^35S] ASA fragments as substrate. The fragments were added to the assay mixture as ribosome-associated nascent chain complexes. The quantitation of the product included tryptic digestion, separation of the peptides by RP-HPLC and identification and quantitation of the [^35S]-labeled FGly containing tryptic peptide by a combination of chemical derivatization to hydrazones, RP-HPLC separation and liquid scintillation counting (Fey et al., J. Biol. Chem., 2001, 276:47021-47028). For monitoring the enzyme activity during purification, this cumbersome procedure needed to be modified. […] We synthesized the 23mer peptide P23 (SEQ ID NO:33), which corresponds to ASA residues 60-80 with an additional N-acetylated methionine and a C-amidated serine residue to protect the N- and C-terminus, respectively. The cysteine and the FGly containing forms of P23 could be identified and quantified by matrix-assisted laser desorption/ionisation time of flight (MALDI-TOF) mass spectrometry. The presence of the FGly residue in position 11 of P23 was verified by MALDI-TOF post source decay mass spectrometry (see Peng et al., J. Mass Spec., 2003, 38:80-86). […]

FGE [2] = biological target: T1, FGE; experiment: Affinity matrices: Affigel 10 derivatized with 16mer peptides, binding of FGE; set-up: species or system bovine
Procedure: Bovine testes were obtained from the local slaughter house and stored for up to 20 h on ice. The parenchyme was freed from connective tissue and homogenized in a waring blendor and by three rounds of motor pottering. Preparation of rough microsomes (RM) by cell fractionation of the obtained homogenate was performed as described (Meyer et al., J. Biol. Chem., 2000, 275:14550-14557) with the following modifications. Three differential centrifugation steps, 20 minutes each at 4° C., were performed at 500 g (JA10 rotor), 3000 g (JA10) and 10000 g (JA20). From the last supernatant the RM membranes were sedimented (125000 g, Ti45 rotor, 45 min, 4° C.), homogenized by motor pottering and layered on a sucrose cushion (50 mM Hepes, pH 7.6, 50 mM KAc, 6 mM MgAc2, 1 mM EDTA, 1.3 M sucrose, 5 mM β-mercaptoethanol). RMs were recovered from the pellet after spinning for 210 minutes at 45000 rpm in a Ti45 rotor at 4° C. Usually 100000-150000 equivalents RM, as defined by Walter and Blobel (Methods Enzymol.,1983, 96:84-93), were obtained from 1 kg of testis tissue. The reticuloplasm, i.e. the luminal content of the RM, was obtained by differential extraction at low concentrations of deoxy Big Chap, as described (Fey et al., J. Biol. Chem., 2001, 276:47021-47028). For FGE purification, 95 ml of reticuloplasm were dialyzed for 20 h at 4° C. against 20 mM Tris/HCl, pH 8.0, 2.5 mM DTT, and cleared by centrifugation at 125000 g for 1 h. 32 ml-aliquots of the cleared reticuloplasm were loaded on a MonoQ HR10/10 column (Amersham Biosciences, Piscataway, N.J.) at room temperature, washed and eluted at 2 ml/min with a linear gradient of 0 to 0.75 M NaCl in 80 ml of the Tris buffer. […] An aliqout of the eluate was substituted with 1 mg/ml bovine serum albumin, dialyzed against buffer A and analyzed for activity. […] The polypeptide composition of the starting material and preparations obtained after the chromatographic steps were monitored by SDSPAGE (15% acrylamide, 0.16% bisacrylamide) and staining with SYPRO Ruby (Bio-Rad Laboratories). […]

ARSA, ARSC and ARSE = experiment: Co-expression of FGE (SUMF1) and sulfatase cDNAs in cell lines, sulfatase activities; type: cell-based, human; conditions: co-transfection with ARSA, ARSC and ARSE cDNAs in various cell lines
Source text: To test the effect of FGE (SUMF1) on additional sulfatase activities in normal cells we overexpressed ARSA (SEQ ID NO:14), ARSC (SEQ ID NO:18) and ARSE (SEQ ID NO:22) cDNAs in various cell lines with and without co-transfection of the FGE (SUMF1) cDNA and measured sulfatase activities.
To test for functional conservation of the FGE (SUMF1) gene during evolution we overexpressed ARSA, ARSC and ARSE cDNAs in various cell lines with and without co-transfection of the […] and measured sulfatase activities.

FGE [3] = biological target: T1, FGE; experiment: In vitro assay for FGE with peptide P23 as substrate (MALDI-TOF); type: biochemical; conditions: incubation with extracts from microsomes of bovine pancreas or bovine testis
Procedure: For monitoring the activity of FGE, the N-acetylated and C-amidated 23mer peptide P23 ([…]) (SEQ ID NO:33) was used as substrate. The conversion of the Cysteine residue in position 11 to FGly was monitored by MALDI-TOF mass spectrometry. A 6 μM stock solution of P23 in 30% acetonitrile and 0.1% trifluoroacetic acid (TFA) was prepared. Under standard conditions 6 pmol of P23 were incubated at 37° C. with up to 10 μl enzyme in a final volume of 30 μl 50 mM Tris/HCl, pH 9.0, containing 67 mM NaCl, 15 μM CaCl2, 2 mM DTT, and 0.33 mg/ml bovine serum albumin. To stop the enzyme reaction 1.5 μl 10% TFA were added. […] Activity (pmol product/h) was calculated on the basis of the peak height of the product divided by the sum of the peak heights of P23 and the product.
We had developed an assay for determining FGE activity in microsome extracts using in vitro synthesized [^35S] […] The quantitation of the product included tryptic digestion, separation of the peptides by RP-HPLC and identification and quantitation of the [^35S]-labeled FGly containing tryptic peptide by a combination of chemical derivatization to hydrazones, RP-HPLC separation and liquid scintillation counting (Fey et al., J. Biol. Chem., 2001, 276:47021-47028). […] The cysteine and the FGly containing forms of P23 could be identified and quantified by matrix-assisted laser desorption/ionisation time of flight (MALDI-TOF) mass spectrometry. […]

- inhibition of FGE activity (FGE [1]; added at 10 mM concentration): did not inhibit FGE activity
- binding of FGE to peptide immobilized to Affigel 10 (FGE [2]): did not retain FGE activity
Substance: scrambled peptide: variant of ASA65-80 with Cys69, Pro71 and Arg73 scrambled, PVSLPTRSCAALLTGR (SEQ ID NO:34) (a variant of the ASA65-80 peptide, in which residues Cys69, Pro71 and Arg73, critical for FGly formation, were scrambled)

- binding of FGE to peptide immobilized to Affigel 10 (FGE [2]): efficiently bound FGE
Substance: Ser69 peptide: variant of ASA65-80 with Cys69 replaced by serine, PVSLSTPSRAALLTGR (SEQ ID NO:35) (a variant of the ASA65-80 peptide, in which the Cys69 was replaced by a Serine)

- inhibition of FGE activity (FGE [1]): inhibited the FGE activity
- binding of FGE to peptide immobilized to Affigel 10 (FGE [2]): bound FGE efficiently
Substance: ASA65-80: synthetic 16mer peptide corresponding to ASA residues 65-80 containing the sequence motif required for FGly formation (PVSLCTPSRAALLTGR)

Continued, substance first:

Substance: FGE2 (SUMF2): FGE gene paralog located on human chromosome 7 (SEQ ID NOs: 45, 46)
- activity of FGE homologs on overexpressed human sulfatases (ARSA, ARSC and ARSE): much weaker

Substance: Ac-MTDFYVPVSLCTPSRAALLTGRS-NH2 [P23]
- conversion of the peptide into a FGly containing derivative (FGE [3]): up to 95%
